This is an account of results in doi:10.1101/2023.05.16.540868 (bioRxiv, 2023).

Where two headings read alike, the source gives them in different places.

Series [1] concerns the molecule itself. Briefly: mass photometry.
Series [2] concerns the molecule itself. Briefly: mass photometry. This is another data set of the same source.

B1: SPD-5(541-677) (domain or fragment, C. elegans, UniProt P91349 541-677, looked up)
chain: SQSHIPILHDMQQILDSSAMFLEGQHDVAVNVEQMQEKMSQIREALARLFERLKSSAALFEEILERMGSSDPNADKIKKMKLAFETSINDKLNVSAILEAAEKDLHNMSLNFSILEKSIVSQAAEASRRFTIAPDAE
Regarding B1, the “stoichiometry N” value in series [1] stood at 2.

B2: SPD-5(541-677) R592K (domain or fragment, C. elegans, UniProt P91349 541-677, looked up)
chain: SQSHIPILHDMQQILDSSAMFLEGQHDVAVNVEQMQEKMSQIREALARLFEKLKSSAALFEEILERMGSSDPNADKIKKMKLAFETSINDKLNVSAILEAAEKDLHNMSLNFSILEKSIVSQAAEASRRFTIAPDAE
Take B2: in series [1], the “stoichiometry N” value amounted to 2.

B3: SPD-5(541-677) phosphorylated by PLK-1(CA) (domain or fragment, C. elegans, UniProt P91349 541-677, looked up)
chain: SQSHIPILHDMQQILDSSAMFLEGQHDVAVNVEQMQEKMSQIREALARLFERLKSSAALFEEILERMGSSDPNADKIKKMKLAFETSINDKLNVSAILEAAEKDLHNMSLNFSILEKSIVSQAAEASRRFTIAPDAE
modifications: phosphorylated by PLK-1(CA) (verified by gel migration shift and MS); sites not printed for this fragment
In the case of B3, in series [2], the “stoichiometry N” value is 2.

One may read the stoichiometry N as a count of units in the complex or per binding partner.
